In publication PMC6082896:

Target: T1, OxyR (Pseudomonas aeruginosa (PAO1?)) (UniProt Q9HTL4)
T1 sequence: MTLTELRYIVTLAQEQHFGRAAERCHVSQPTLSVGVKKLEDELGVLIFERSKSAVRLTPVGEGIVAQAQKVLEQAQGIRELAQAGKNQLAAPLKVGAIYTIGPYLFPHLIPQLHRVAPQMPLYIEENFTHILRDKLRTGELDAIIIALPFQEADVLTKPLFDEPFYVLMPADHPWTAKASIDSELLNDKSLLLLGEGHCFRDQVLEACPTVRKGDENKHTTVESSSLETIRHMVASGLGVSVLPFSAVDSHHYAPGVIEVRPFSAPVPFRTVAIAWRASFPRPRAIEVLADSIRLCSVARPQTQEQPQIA
Assay: EMSA
Details: 20 mM Tris-HCl pH 7.0, 50 mM KCl, 1 mM EDTA, 5% glycerol, 50 ug/ml BSA, 5 ug/ml calf thymus DNA, 0.5 ug/ml poly[dI-dC], 50 ug/ml salmon sperm DNA, 100 mM DTT …

For “AAGTCGGTGATGGCCTCGCCGGCCAGGCGGCGCAGGCGCTTCTGCAGTTTGTTCTGATTGACCGAAAGGGTGCCCATGGTGCTCTGGAATCCGGGTGTTCGAGGAGAAAAGCTGGCTATTTTACGCACAAAGCGACGCCGACCCCAGCCCCTCCCGACGCCCGATGCTAGTCTTGCCCCATGACTCCCGACCTCGACCACCGCCTCGACCT (double strand) [ttcA promoter fragment]”, the binding was “binds”.
